Molecular target: K63-linked diUb (UniProt P0CG48)
Experiment: ITC; USP13-UBA12 (1.25 mM stock) injected into K63-, K48-, linear diUb (0.1 mM) or monoUb (0.2 mM), 25 injections of 1.5 µL; 50 mM Tris, 150 mM NaCl, pH 7.5; 25°C

Kd: 1000 nM
Substance: tandem UBA domains of USP13 (USP13-UBA12, residues 652-776) (from UniProt Q92995 652-776) (domain or fragment)
